{"source": "the Human Domainome abundance scans (Beltran et al. 2025)", "parents": {"B1": {"name": "Cell division cycle and apoptosis regulator protein 1, residues 625 to 674; numbered along this chain, Q8IX12 (parent)", "chain": "ISTPTHWSKLDPKTMKVNDLRKELESRALSSKGLKSQLIARLTKQLKVEE"}}, "note": "± gives the uncertainty stated by the source."}
{"variants_of": "B1", "assay": "abundance fitness (aPCA) (normalised: wild type 0, dead -1); higher = more abundant; growth selection in yeast, the domain comes from the species named", "conditions": "Homo sapiens"}
{"variant": "ISTPTHWSKLDPKTMKVNDLRKELESRAGSSKGLKSQLIARLTKQLKVEE", "note": "[L29G]", "abundance fitness": "-0.853 ± 0.04"}
{"variant": "ISTPTHWSKLDPKTMKVNDLRKELESRALSSKGLKLQLIARLTKQLKVEE", "note": "[S36L]", "abundance fitness": "-0.159 ± 0.037"}
{"variant": "ISTPTHWSKLDPKTMKVNDLRKELESRAASSKGLKSQLIARLTKQLKVEE", "note": "[L29A]", "abundance fitness": "-0.899 ± 0.059"}
{"variant": "ISTPTHWSKLHPKTMKVNDLRKELESRALSSKGLKSQLIARLTKQLKVEE", "note": "[D11H]", "abundance fitness": "0.074 ± 0.06"}
{"variant": "ISTPTHWSKLDPKTMKVNDLRKELESRALSSKGLDSQLIARLTKQLKVEE", "note": "[K35D]", "abundance fitness": "-0.212 ± 0.054"}
{"variant": "ISTPTHWSKLDPKTMKVNDLRKELESRALSSKGLGSQLIARLTKQLKVEE", "note": "[K35G]", "abundance fitness": "-0.356 ± 0.031"}
{"variant": "ISTPTHWSKLDPKTMKVNDLRKELESRALSSKGLKSQLIARLTIQLKVEE", "note": "[K44I]", "abundance fitness": "-0.296 ± 0.042"}
{"variant": "ISTPTHWSKLDPKTMKVNDLRKELESRALSSKGLKSQLIARRTKQLKVEE", "note": "[L42R]", "abundance fitness": "-0.733 ± 0.038"}
{"variant": "ISTPTHWSKLDPKTMKVNDLRKELESRALSSKLLKSQLIARLTKQLKVEE", "note": "[G33L]", "abundance fitness": "-1.04 ± 0.052"}
{"variant": "ISTPTHWSKLDPKTMKVNDLRKELESRALSSKGLKSQLIARLTKQLKNEE", "note": "[V48N]", "abundance fitness": "0.031 ± 0.046"}
{"variant": "ISTPTHWSKLDPKTMKVNDLRKELESYALSSKGLKSQLIARLTKQLKVEE", "note": "[R27Y]", "abundance fitness": "-0.995 ± 0.21"}
{"variant": "ISTPTHWSKLDPKTPKVNDLRKELESRALSSKGLKSQLIARLTKQLKVEE", "note": "[M15P]", "abundance fitness": "-0.83 ± 0.12"}
{"variant": "ISTPTHWSKLDPKTMKVNDLRKELEWRALSSKGLKSQLIARLTKQLKVEE", "note": "[S26W]", "abundance fitness": "0.047 ± 0.029"}
{"variant": "ISTPEHWSKLDPKTMKVNDLRKELESRALSSKGLKSQLIARLTKQLKVEE", "note": "[T5E]", "abundance fitness": "-0.082 ± 0.057"}
{"variant": "ISTPTHWSKLDPKTMKVNDLRKELESRALSSKGLKSQLIARLVKQLKVEE", "note": "[T43V]", "abundance fitness": "-0.057 ± 0.041"}
{"variant": "ISTPTHWSKLDPKTMMVNDLRKELESRALSSKGLKSQLIARLTKQLKVEE", "note": "[K16M]", "abundance fitness": "-0.24 ± 0.052"}
{"variant": "ISTPTHWSKLDPKTMKVNDLRKELESRALSSKGLKSQLPARLTKQLKVEE", "note": "[I39P]", "abundance fitness": "-0.366 ± 0.066"}
{"variant": "ISTPTHWSKLDPKTMKVNDLRKELESRAQSSKGLKSQLIARLTKQLKVEE", "note": "[L29Q]", "abundance fitness": "-0.172 ± 0.051"}
{"variant": "ISTPTHWSKLDPKTMKVNDLRKELESRAMSSKGLKSQLIARLTKQLKVEE", "note": "[L29M]", "abundance fitness": "-0.021 ± 0.052"}
{"variant": "ISTPTHWSKLDPKTMKVNDLRKELESRALSSKGLKSQAIARLTKQLKVEE", "note": "[L38A]", "abundance fitness": "-0.534 ± 0.03"}
{"variant": "ISTPTHWSKLDPKTMKVNDLRKELESRALSSKGFKSQLIARLTKQLKVEE", "note": "[L34F]", "abundance fitness": "-0.195 ± 0.052"}
{"variant": "ISTPTHWSKLDPKTMKVKDLRKELESRALSSKGLKSQLIARLTKQLKVEE", "note": "[N18K]", "abundance fitness": "0.124 ± 0.029"}
{"variant": "ISTPTHWSKLDPKTMKVNDLRKELESRALSAKGLKSQLIARLTKQLKVEE", "note": "[S31A]", "abundance fitness": "0.005 ± 0.034"}
{"variant": "ISTPTHWSKLDPKTMKVNDLRKELESRAPSSKGLKSQLIARLTKQLKVEE", "note": "[L29P]", "abundance fitness": "-0.86 ± 0.098"}
{"variant": "ISTPTHCSKLDPKTMKVNDLRKELESRALSSKGLKSQLIARLTKQLKVEE", "note": "[W7C]", "abundance fitness": "-0.112 ± 0.046"}
{"variant": "ISTPTHWSKLDPKTMKVNDLRKELESRALSSKGLKSQLIARLTKQPKVEE", "note": "[L46P]", "abundance fitness": "-0.822 ± 0.066"}
{"variant": "ISTPTHWSKLDPKTMKVNDLRKELESRALSSKGLKSQLNARLTKQLKVEE", "note": "[I39N]", "abundance fitness": "-0.26 ± 0.049"}
{"variant": "ISTPTHWSKLDPKTMKVNDLRKELESRALSSKGLKSQLIARLTNQLKVEE", "note": "[K44N]", "abundance fitness": "-0.091 ± 0.067"}
{"variant": "ISTPTHWSKLYPKTMKVNDLRKELESRALSSKGLKSQLIARLTKQLKVEE", "note": "[D11Y]", "abundance fitness": "-0.036 ± 0.034"}
{"variant": "ISTPTHWSKLDPKTMKVNDLRKELESRALWSKGLKSQLIARLTKQLKVEE", "note": "[S30W]", "abundance fitness": "-0.283 ± 0.043"}
{"variant": "ISTPTHWSKLDPYTMKVNDLRKELESRALSSKGLKSQLIARLTKQLKVEE", "note": "[K13Y]", "abundance fitness": "-0.23 ± 0.074"}
{"variant": "ISTPTHWSKLDPKTMKVNDLRKELESRALSSKGLKSQLIARLTKQLKTEE", "note": "[V48T]", "abundance fitness": "-0.073 ± 0.055"}
{"variant": "ISTPTHWSKLDPKTMKVNDLRKELESRALSSVGLKSQLIARLTKQLKVEE", "note": "[K32V]", "abundance fitness": "-0.233 ± 0.032"}
{"variant": "ISTPTHWSKLDPKTMKVNDLRKELESRALSIKGLKSQLIARLTKQLKVEE", "note": "[S31I]", "abundance fitness": "0.047 ± 0.06"}
{"variant": "ISTPTHWSKLDPKTMKVNDLRKELESRALSSKGLKSQLIARDTKQLKVEE", "note": "[L42D]", "abundance fitness": "-0.493 ± 0.043"}
{"variant": "ISTPTHWSKLDPKTMKVNDLRKELESRALSSKGLKSQLIARLTKQLKAEE", "note": "[V48A]", "abundance fitness": "-0.117 ± 0.043"}
{"variant": "ISTPTHWSKLDPKTMKVNDLRKELESRALSSKGLKSQMIARLTKQLKVEE", "note": "[L38M]", "abundance fitness": "-0.049 ± 0.052"}
{"variant": "ISTPTNWSKLDPKTMKVNDLRKELESRALSSKGLKSQLIARLTKQLKVEE", "note": "[H6N]", "abundance fitness": "0.054 ± 0.045"}
{"variant": "ISTPTHWSKLDPRTMKVNDLRKELESRALSSKGLKSQLIARLTKQLKVEE", "note": "[K13R]", "abundance fitness": "-0.221 ± 0.032"}
{"variant": "ISTPTHWSKLDPKTMKVNDLRKELESRALSSKGLKSQLIARLTKQLKVEQ", "note": "[E50Q]", "abundance fitness": "-0.064 ± 0.083"}
{"variant": "ISTPTHWSKLDPKTMKVNDLRKEIESRALSSKGLKSQLIARLTKQLKVEE", "note": "[L24I]", "abundance fitness": "-0.586 ± 0.083"}
{"variant": "ISTPTHWSKLDPKTMKVNDLRKELESRALSSKGLKSQLIARLTKWLKVEE", "note": "[Q45W]", "abundance fitness": "-0.244 ± 0.04"}
{"variant": "ISTPTHWSKLDPKTMKVNDLRKELESRALSSKGLKSQLSARLTKQLKVEE", "note": "[I39S]", "abundance fitness": "-0.205 ± 0.048"}
{"variant": "ISTPTHWSKLDPKTMKVNDLRKELESRALSSKGLKSQLIMRLTKQLKVEE", "note": "[A40M]", "abundance fitness": "0.034 ± 0.035"}
{"variant": "ISTPTHWSKLDPKTMKVNDLRKELESRALSSKGLKSQLIARLTSQLKVEE", "note": "[K44S]", "abundance fitness": "-0.19 ± 0.04"}
{"variant": "ISTPAHWSKLDPKTMKVNDLRKELESRALSSKGLKSQLIARLTKQLKVEE", "note": "[T5A]", "abundance fitness": "0.026 ± 0.05"}
{"variant": "ISTPTHWSKLDPKTMKVNDLRKELESRALSSKGLQSQLIARLTKQLKVEE", "note": "[K35Q]", "abundance fitness": "-0.299 ± 0.08"}
{"variant": "ISTPTHWSKLDPKTMKVNDLRKELESRALYSKGLKSQLIARLTKQLKVEE", "note": "[S30Y]", "abundance fitness": "-0.141 ± 0.048"}
{"variant": "ISTPTHWSKLDRKTMKVNDLRKELESRALSSKGLKSQLIARLTKQLKVEE", "note": "[P12R]", "abundance fitness": "-0.89 ± 0.04"}
{"variant": "ISTPTHWSKLDPKTMKVNDLRKELESRALSSKGLKSQLIARHTKQLKVEE", "note": "[L42H]", "abundance fitness": "-0.509 ± 0.11"}
{"variant": "ISTPTHWSKLDPKTMKVNDLRKELESRALSSKGLKSQLIARLTKQGKVEE", "note": "[L46G]", "abundance fitness": "-0.787 ± 0.051"}
{"variant": "ISTPTHWSKLDPKTMKVNDLRKELESRAYSSKGLKSQLIARLTKQLKVEE", "note": "[L29Y]", "abundance fitness": "-0.384 ± 0.048"}
